Measured values published in patent publication US20050008615A1.

How the values were obtained:
[1] = molecular target: human IL-18 binding protein (human) (UniProt O95998); test: IGEN electrochemiluminescence immunoassay of the IL-18:IL-18BP complex; 125 ng/ml of each
[2] = molecular target: human IL-18 binding protein (human) (UniProt O95998); test: SPR (BIAcore)
[3] = molecular target: human IL-18 binding protein (human) (UniProt O95998); test: IGEN electrochemiluminescence immunoassay of the IL-18:IL-18BP complex (ruthenium 16D10 anti-IL-18 mAb, biotinylated mAb 36 anti-IL-18BP); 125 ng/ml of each

Sequence of native human IL-18 (SEQ ID NO:1) (Q14116 37-193): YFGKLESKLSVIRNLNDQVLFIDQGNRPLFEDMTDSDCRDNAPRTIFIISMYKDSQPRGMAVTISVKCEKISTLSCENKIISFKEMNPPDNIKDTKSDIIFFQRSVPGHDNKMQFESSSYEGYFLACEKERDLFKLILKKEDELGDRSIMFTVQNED

## C144 20K PEG (human IL-18 L144C substitution mutant pegylated at C144 with 20K PEG, Table 7) (ligand)
[1]
  ECL units: 154000 ECL units

## C144 non-PEG (human IL-18 substitution mutant with L144C, Table 7) (ligand)
[1]
  ECL units: 561000 ECL units

## C157 20K PEG (human IL-18 D157C substitution mutant pegylated at C157 with 20K PEG, Table 7) (ligand)
[1]
  ECL units: 63500 ECL units

## C157 non-PEG (human IL-18 substitution mutant with D157C, Table 7) (ligand)
[1]
  ECL units: 377000 ECL units

## human IL-18 C38S (SEQ ID NO:4) (from UniProt Q14116 37-193) (ligand)
[1]
  ECL units: 746000 ECL units

## human IL-18 C38S (SEQ ID NO:4) monopegylated at C68 with 20K PEG (from UniProt Q14116 37-193) (ligand)
[1]
  ECL units: 49100 ECL units

## human IL-18 C38S, C68D, D157C (SEQ ID NO:8) (from UniProt Q14116 37-192) (ligand)
[2]
  Kd: 0.134 nM

## human IL-18 C38S, C68D, D157C (SEQ ID NO:8) monopegylated at C157 with 20K PEG (from UniProt Q14116 37-192) (ligand)
[2]
  Kd: 5.53 nM

## human IL-18 C38S, C68D, D157C (SEQ ID NO:8) monopegylated at C157 with 30K PEG (from UniProt Q14116 37-192) (ligand)
[2]
  Kd: 4.91 nM

## human IL-18 C38S, C68D, D157C (SEQ ID NO:8) monopegylated at C157 with 40K PEG (from UniProt Q14116 37-192) (ligand)
[2]
  Kd: 23.6 nM

## human IL-18 C38S, C68D, L144C (SEQ ID NO:7) (from UniProt Q14116 37-193) (ligand)
[2]
  Kd: 0.101 nM

## human IL-18 C38S, C68D, L144C (SEQ ID NO:7) monopegylated at C144 with 20K PEG (from UniProt Q14116 37-193) (ligand)
[2]
  Kd: 1.16 nM

## human IL-18 C38S, C68D, L144C (SEQ ID NO:7) monopegylated at C144 with 30K PEG (from UniProt Q14116 37-193) (ligand)
[2]
  Kd: 1.51 nM

## human IL-18 C38S, C68D, L144C (SEQ ID NO:7) monopegylated at C144 with 40K PEG (from UniProt Q14116 37-193) (ligand)
[2]
  Kd: 4.71 nM

## human IL-18 C38S, C68S, D157C (SEQ ID NO:10) (from UniProt Q14116 37-192) (ligand)
[2]
  Kd: 0.163 nM

## human IL-18 C38S, C68S, D157C (SEQ ID NO:10) monopegylated at C157 with 20K PEG (from UniProt Q14116 37-192) (ligand)
[2]
  Kd: 1.27 nM

## human IL-18 C38S, C68S, D157C (SEQ ID NO:10) monopegylated at C157 with 30K PEG (from UniProt Q14116 37-192) (ligand)
[2]
  Kd: 1.29 nM

## human IL-18 C38S, C68S, L144C (SEQ ID NO:9) (from UniProt Q14116 37-193) (ligand)
[2]
  Kd: 0.156 nM

## human IL-18 C38S, C68S, L144C (SEQ ID NO:9) monopegylated at C144 with 20K PEG (from UniProt Q14116 37-193) (ligand)
[2]
  Kd: 1.56 nM

## human IL-18 C38S, C68S, L144C (SEQ ID NO:9) monopegylated at C144 with 30K PEG (from UniProt Q14116 37-193) (ligand)
[2]
  Kd: 1.51 nM

## native human IL-18 (SEQ ID NO:1) (from UniProt Q14116 37-193) (ligand)
[2]
  Kd: 0.135 nM
[3]
  ECL units: 1.1e+06 ECL units
